Columns and labels:
[1] = target: purified HIV-1 gp120 (HIV-1); assay: cell-based or functional assay
[2] = target: purified HIV-1 gp120 (HIV-1); assay: SPR (Biacore); gp120 immobilized on the chip, MOMO30 flowed at 6.25 nM to 200 nM; triplicate on separate days

MOMO30 protein from Momordica balsamina was tested, and the IC50 in MAGI infectivity assay, HIV-1 lab strain NL4-3 [1] was 0.032 nM and the Kd [2] was 5800 nM.
